Values joined by “and” are separate entries in the source; they are usually repeats but may differ in a detail not shown here. Identical values can stand only once.
Target: the molecule itself
Assay: cross-linking + co-IP; AB5075-pMMB-oxa23 cells cross-linked with BDP-NHP, lysates denatured with SDS, anti-HA agarose IP; immunoblots with anti-HA, anti-OmpA, streptavidin; DMSO-treated control

B1: Oxa23-HA-Strep (enzyme)
chain: CTVQHNLINETPSQIVQGHNQVIHQYFDEKNTSGVLVIQTDKKINLYGNALSRANTEYVPASTFKMLNALIGLENQKTDINEIFKWKGEKRSFTAWEKDMTLGEAMKLSAVPVYQELARRIGLDLMQKEVKRIGFGNAEIGQQVDNFWLVGPLKVTPIQEVEFVSQLAHTQLPFSEKVQANVKNMLLLEESNGYKIFGKTGWAMDIKPQVGWLTGWVEQPDGKIVAFALNMEMRSEMPASIRNELLMKSLKQLNII
notes: Oxa-23 of Acinetobacter baumannii AB5075; oxa-23 gene with the TAA stop codon omitted so that the HA-Strep tag of the pMMB vector follows; I take the same for this construct and that the signal peptide is cut on export; also called Oxa-23 with C-terminal HA-Strep tags; tagged Oxa-23; source: A. baumannii AB5075 WT cells transformed with pMMB-oxa23-HA-Strep (AB5075-pMMB-oxa23), in lysate; not …
- stoichiometry N: 2 and 4
